Strand notation (5' to 3'): a small letter for the sugar, then the base; units joined by * are phosphorothioate-linked, units joined directly phosphodiester-linked; [ ] holds rarer units or linkages, { } end groups; capitals alone tell only the bases. {ppp} = triphosphate; r = 2'-OH (RNA); f = 2'-fluoro
Legend:
WM266.4 cells = experiment: Cellular stability of transfected RNA by RT-PCR; format: in vitro ADME, human; conditions: 4, 8, 12 and 24 h after transfection
Description: (§1) FIG. 6A-FIG. 6D are a set of graphs showing that 2′F modification increases nuclease resistance, cytotoxicity and inflammatory cytokine induction of immunostimulatory 5′ppp ssRNAs. FIG. 6A is a graph showing ability of various modified ssRNAs to inhibit the growth of cells over concentration ranges. WM266-4 cells were treated with transfection reagent alone (mock) or the complex of transfection reagent and 5′ppp 10F containing 2′F pyrimidine, 2′OMe pyrimidine or unmodified pyrimidine (2′OH) at various concentrations. The viral dsRNA analog PolyI:C was used as an experimental control. Growth inhibition was assessed at 72 h post treatments using the MTT assay. FIG. 6B is a set of graphs showing cytokine induction after treatment with the indicated ssRNAs. WM266-4 cells were either treated with transfection reagent alone (mock) or the complex of transfection reagent and 5′ppp 2′OH 10F, 5′ppp 2′F 10F, 5′ppp 2′OMe 10F or poly I:C (0.5 μg/ml each). The secretion of IFNβ and IL-8 by the melanoma cells was analyzed at 24 h after treatment by ELISA. The data represent the mean of three experiments. Error bars represent the S.D.; *P<0.05 (5′ppp 2′F 10F vs 5′ppp 2′OH 10F); P<0.001 (5′ppp 2′OMe 10F vs 5′ppp 2′OH 10F). […] RNAs were analyzed on 12% polyacrylamide gels. […] At 4 h, 8, 12 and 24 h after transfection, total RNAs were isolated and cellular 10F RNA levels were analyzed by RT-PCR. […]

[1] = Serum stability in 10% fetal bovine serum, polyacrylamide gel; format: in vitro ADME; conditions: 37° C., 0 to 24 h
Description: as §1

B1: 10F: 5′ppp 2′F pyrimidine ssRNA aptamer, 71 nt, human melanocytic cell-targeting, SEQ ID NO: 4 (nucleic acid)
chain: {ppp}-rGrGrGrArGrGrAfCrGrAfUrGfCrGrGfUrAfCfCfUrGrAfCrArGfCrAfUfCfUfUrGrAfUrArAfUrGrGfUfCfCfUrAfCrGrGrArGfCfCrGfUfUfCfCrArGrAfCrGrAfCfUfCrGfCfCfCrGrA
In the case of B1, the “cellular stability compared to unmodified RNAs” value (WM266.4 cells) is reported as “improve cellular stability” and the serum stability [1] is reported as “resistant to serum degradation”.

Source: patent US10350158B2, “2′ fluoro-modified RNAs as immunostimulators” (DUKE UNIVERSITY, priority 2013, dated 2019)
